Test results reported in PMC10143966, “The Replicative DnaE Polymerase of Bacillus subtilis Recruits the Glycolytic Pyruvate Kinase (PykA) When Bound to Primed DNA Templates” (Life, 2023).
Read-outs that look alike come from different tables or passages of the source. Each block holds one molecule with its values, some of them ahead of it.

How the values were obtained:
[1] = target: T1, B. subtilis DnaE polymerase (B. subtilis, UniProt O34623 1-1115); assay: SPR; 5'-biotinylated primed DNA probe (30 mer annealed to 110 mer) immobilised on a streptavidin SA chip (about 100 RU); DnaE (35 nM) added with increasing concentrations of PykA (0-1000 nM), CAT or PEPut; Biacore T200, 200 uL/min, 25 °C, 25 mM NaCl, 25 mM MgCl2, 150 mM Tris-HCl pH 7.5, 1 mM DTT; maximum RU values fitted to a one site-specific binding curve
T1 construct: DnaE DNA polymerase, Bacillus subtilis; also called replicative DnaE polymerase; lagging strand DNA polymerase
T1 sequence (looked up): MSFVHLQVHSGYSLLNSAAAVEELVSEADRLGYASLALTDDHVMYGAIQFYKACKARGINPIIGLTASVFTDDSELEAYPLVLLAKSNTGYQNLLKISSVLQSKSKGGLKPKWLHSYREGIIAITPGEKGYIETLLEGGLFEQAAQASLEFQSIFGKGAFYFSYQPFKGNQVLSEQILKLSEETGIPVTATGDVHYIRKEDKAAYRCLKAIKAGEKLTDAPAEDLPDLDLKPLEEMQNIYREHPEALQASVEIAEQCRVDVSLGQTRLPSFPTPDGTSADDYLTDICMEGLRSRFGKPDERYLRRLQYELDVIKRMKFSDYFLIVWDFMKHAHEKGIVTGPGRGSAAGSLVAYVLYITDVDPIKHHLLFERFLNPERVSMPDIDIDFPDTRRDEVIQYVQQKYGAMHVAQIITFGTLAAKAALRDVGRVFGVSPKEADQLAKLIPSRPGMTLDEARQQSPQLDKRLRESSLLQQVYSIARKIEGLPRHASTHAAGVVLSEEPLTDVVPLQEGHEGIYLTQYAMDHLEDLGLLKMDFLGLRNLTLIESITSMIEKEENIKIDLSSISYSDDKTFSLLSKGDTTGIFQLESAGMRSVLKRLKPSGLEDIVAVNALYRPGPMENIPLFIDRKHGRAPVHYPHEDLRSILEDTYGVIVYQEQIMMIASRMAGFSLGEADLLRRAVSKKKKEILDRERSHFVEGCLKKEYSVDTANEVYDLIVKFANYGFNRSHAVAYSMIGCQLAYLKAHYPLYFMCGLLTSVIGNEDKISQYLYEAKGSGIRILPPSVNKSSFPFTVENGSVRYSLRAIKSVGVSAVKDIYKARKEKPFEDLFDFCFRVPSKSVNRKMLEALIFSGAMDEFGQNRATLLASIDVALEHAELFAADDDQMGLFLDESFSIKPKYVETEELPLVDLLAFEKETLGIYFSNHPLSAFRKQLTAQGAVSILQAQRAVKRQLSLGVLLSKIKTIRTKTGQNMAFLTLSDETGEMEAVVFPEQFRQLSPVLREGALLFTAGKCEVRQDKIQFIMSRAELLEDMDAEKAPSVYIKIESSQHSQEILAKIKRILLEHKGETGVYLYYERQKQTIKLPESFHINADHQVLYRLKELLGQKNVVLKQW

[2] = target: DnaE polymerase;PykA pyruvate kinase (Bacillus subtilis;Bacillus subtilis, UniProt O34623;P80885 1-1115;1-585, |); assay: SPR; PykA titrated (0-1000 nM) onto DnaE (35 nM) on DNA; Kd is for PykA to DnaE-DNA complex; 25 mM MgCl2; SPR (Biacore T200, SA chip): 25 mM NaCl, 25 mM MgCl2, 150 mM Tris-HCl pH 7.5, 1 mM DTT, 25 °C; conditions: protein: recombinant;recombinant; tags: ;His-MBP removed by TEV; copies: 1;4; label: 5' biotin on 110 mer (strand 1); 30 mer primer annealed to 110 mer template, ssDNA on both sides; 5' A of the primer may be near/at the CCCCCT junction
[3] = target: T2, PykA pyruvate kinase (Bacillus subtilis, UniProt P80885 1-585); assay: SPR; no DnaE; 25 mM MgCl2; SPR (Biacore T200, SA chip): 25 mM NaCl, 25 mM MgCl2, 150 mM Tris-HCl pH 7.5, 1 mM DTT, 25 °C; conditions: protein: recombinant; tags: His-MBP removed by TEV; chain copies: 4; label: 5' biotin on 110 mer (strand 1); 30 mer primer annealed to 110 mer template, ssDNA on both sides; 5' A of the primer may be near/at the CCCCCT junction
T2 sequence: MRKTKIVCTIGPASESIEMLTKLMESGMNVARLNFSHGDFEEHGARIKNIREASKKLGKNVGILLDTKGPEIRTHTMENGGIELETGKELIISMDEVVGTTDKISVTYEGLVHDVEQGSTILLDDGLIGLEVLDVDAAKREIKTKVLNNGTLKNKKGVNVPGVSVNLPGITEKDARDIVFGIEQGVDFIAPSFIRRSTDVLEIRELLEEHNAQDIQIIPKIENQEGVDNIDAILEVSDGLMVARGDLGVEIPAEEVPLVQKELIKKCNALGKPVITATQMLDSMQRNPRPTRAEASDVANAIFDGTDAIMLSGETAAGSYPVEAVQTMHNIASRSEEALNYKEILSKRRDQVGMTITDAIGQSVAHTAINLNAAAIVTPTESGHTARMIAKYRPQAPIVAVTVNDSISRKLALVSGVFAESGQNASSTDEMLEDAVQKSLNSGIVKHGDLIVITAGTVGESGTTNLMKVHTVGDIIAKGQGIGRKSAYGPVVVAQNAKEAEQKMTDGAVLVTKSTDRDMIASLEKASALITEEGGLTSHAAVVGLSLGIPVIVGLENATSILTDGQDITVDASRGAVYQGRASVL

[4] = target: T3, PykA CAT domain (Bacillus subtilis, UniProt P80885 2-473); assay: as above; conditions: protein: recombinant; tags: His-MBP removed by TEV; label: 5' biotin on 110 mer (strand 1); 30 mer primer annealed to 110 mer template, ssDNA on both sides; 5' A of the primer may be near/at the CCCCCT junction
T3 sequence: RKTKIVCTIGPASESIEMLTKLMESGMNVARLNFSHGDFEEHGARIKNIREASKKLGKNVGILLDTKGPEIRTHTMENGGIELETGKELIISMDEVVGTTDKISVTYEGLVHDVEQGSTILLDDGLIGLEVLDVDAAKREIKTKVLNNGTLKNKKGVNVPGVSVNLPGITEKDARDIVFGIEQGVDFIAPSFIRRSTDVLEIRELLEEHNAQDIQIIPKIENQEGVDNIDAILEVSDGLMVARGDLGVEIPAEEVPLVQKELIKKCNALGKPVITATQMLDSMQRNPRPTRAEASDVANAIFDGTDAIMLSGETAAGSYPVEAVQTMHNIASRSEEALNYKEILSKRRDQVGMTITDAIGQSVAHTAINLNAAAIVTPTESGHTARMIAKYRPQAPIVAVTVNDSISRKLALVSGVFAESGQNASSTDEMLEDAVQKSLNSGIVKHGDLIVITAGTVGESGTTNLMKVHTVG

[5] = target: T4, PykA PEPut domain (Bacillus subtilis, UniProt P80885 494-585); assay: as above; conditions: protein: recombinant; tags: His-MBP removed by TEV; label: 5' biotin on 110 mer (strand 1); 30 mer primer annealed to 110 mer template, ssDNA on both sides; 5' A of the primer may be near/at the CCCCCT junction
T4 sequence: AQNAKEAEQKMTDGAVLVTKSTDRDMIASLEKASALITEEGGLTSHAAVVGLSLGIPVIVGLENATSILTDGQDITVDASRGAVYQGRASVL

[6] = target: DnaE polymerase;PykA CAT domain (Bacillus subtilis;Bacillus subtilis, UniProt O34623;P80885 1-1115;2-473, |); assay: SPR; CAT titrated onto DnaE (35 nM) on DNA; Kd is for CAT to DnaE-DNA complex; 25 mM MgCl2; SPR (Biacore T200, SA chip): 25 mM NaCl, 25 mM MgCl2, 150 mM Tris-HCl pH 7.5, 1 mM DTT, 25 °C; conditions: protein: recombinant;recombinant; tags: ;His-MBP removed by TEV; label: 5' biotin on 110 mer (strand 1); 30 mer primer annealed to 110 mer template, ssDNA on both sides; 5' A of the primer may be near/at the CCCCCT junction
[7] = target: DnaE polymerase (Bacillus subtilis, UniProt O34623 1-1115); assay: SPR; 25 mM MgCl2; DnaE 0-700 nM; SPR (Biacore T200, SA chip): 25 mM NaCl, 25 mM MgCl2, 150 mM Tris-HCl pH 7.5, 1 mM DTT, 25 °C; conditions: protein: recombinant; label: 5' biotin on 110 mer (strand 1); 30 mer primer annealed to 110 mer template, ssDNA on both sides; 5' A of the primer may be near/at the CCCCCT junction

- Kd [1]: 7.33 nM
Molecule: CAT domain of B. subtilis PykA (domain or fragment)

- Kd ([1]; both partners purified): 14.6 nM
B1: B. subtilis pyruvate kinase PykA, full-length, wild type (enzyme, UniProt P80885 1-585, looked up)
chain: T2 sequence
notes: PykA pyruvate kinase, Bacillus subtilis; 1755 bp pykA fragment amplified from genomic DNA, cloned into p2CT; the same vector gives an N-terminal tag for PEPut; Tetramer: legends give 16 nM monomers as 4 nM tetramers; also called full-length PykA; wild-type PykA; source: E. coli Rosetta (DE3), purified (HisTrap IMAC, TEV cleavage, reverse IMAC, Superdex 200 gel filtration)

B2: primed probe, 30 mer on 5'-biotinylated 110 mer (mixed)
DNA 1: CACACACACACACACACACACACACACACACACACACACACACACACACACACACACACCCCCTTTAAAAAAAAAAAAAAAAGCCAAAAGCAGTGCCAAGCTTGCATGCC
DNA 2: AGGGGGTGTGTGTGTGTGTGTGTGTGTGTG
- Kd [2]: 14.6 nM
- binding result [3]: no binding
- binding result [4]: no binding
- binding result [5]: no binding
- Kd [6]: 7.33 nM
- Kd [7]: 146 nM
